In the nanobody polyreactivity screen of Harvey et al. (2022):

Experiment: yeast display, Sf9 membrane polyspecificity reagent, FACS + sequencing; frameworks hold sequencing errors
Method in brief: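 Using colony PCR, genes from sorted yeast display clones were amplified, then sequenced on MiSeq at 2 × 250 and filtered by CDR length. The clones had been stained with 10% biotinylated, detergent-solubilized Sf9 membrane reagent for 1 hour at 4 °C and sorted by FACS into low and high (top ~1%) gates on anti-HA and streptavidin fluorescence. Polyreactivity labels come from the gate of origin.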
For “QVQLVESGGGLVQAGGSLRLSCAASGRILLRNVMGLYRPAPGKERELVAVITRTGITYYADSVKGRFTISRDNAKNTVYLQMISLNPEDTAVYYCAAGLPTYEHDYWGQGTQVTVSS”, the “polyreactivity (PSR sort gate)” value was “low polyreactivity”.
In the case of “QVQLVESGGGLVQAGGSLRLSCAASGLTFDVYAMGWYRQAPGKERELVAAISSIGGSTYYADSVKGRFTISRDNAKNTVYLQMNSLKPEDTAVYYCNADYFGGGDYWGQGTQVTVSS”, the “polyreactivity (PSR sort gate)” value is reported as “low polyreactivity”.
For “QVHLVESGGVLVQAGGSLRLSCAASAGNFDTYAMGRYRQAPGKEREMVADITWSGGSTYYADSVKGRFTISRDNAKNTVYLQMNSLKPEDTAVYYCNADDPSKLGYEPDYWGQGTQVTVSS”, the “polyreactivity (PSR sort gate)” value was “low polyreactivity”.
In the case of “QVQLVESGGGLVQAGGSLRLSCAASGGIFARNVMGWYRQAPGKERELVAAISGSGGSTYYADSVKGRFTISRDNAKNTVYLQMNSLKPEDTAVYYCAARTPGVSVYKDGYWGQGTQVTVSS”, the “polyreactivity (PSR sort gate)” value is reported as “low polyreactivity”.
With “QVQLVESGGGLVQAGGSLRLSWAASGSTFNSYAMGCYRQAPWKERELVAAITWSGGSTFYADSVKGRVTISRDNAKNTVYLQMNSLKPEDTSVYYCNADGPYYPPYPSTYVDGDSWGQGTQVTVSS” the “polyreactivity (PSR sort gate)” value was “low polyreactivity”.
For “QVQLVESGGGLVQAGGSLRLSCAASGYTFASNAMGWYRPAPGKERELVAAITRGGSTNYADSVKGRFTISRDNAKNTVYLQMNSLKPEDTAVYYFAAPRYRHTRKGGYWGQGTQVTVSS”, the “polyreactivity (PSR sort gate)” value was “low polyreactivity”.
In the case of “QVQLVETGGGLVHAGGSLRLSCAASGRIFHINAMGWYRQAPGKERELVAAISSGGRTNYADSVKGRFTISRDNAKNTVYLQMNSLKPEDTAVYYCARQYTYGPNRWYGYWGQGTQVTVSS”, the “polyreactivity (PSR sort gate)” value is reported as “high polyreactivity”.
In the case of “QVQLVESGGGLVQAGGSLRLSCAASGFIFYTYAMGWYRQAPGKERELVAAISWRGGRTYYADSVKGRFTISRDNAKNTVYLQMNSLKPEDTAVYYCNAVTRSGEYDYWGQGTQVTVSS”, the “polyreactivity (PSR sort gate)” value is reported as “high polyreactivity”.
For “QVQLVESGGGLVQAGGSLRLSCAASGRTFYPYAMGWYRQAPGKERELVAAISYRGGSTYYADSVKGRFTISRDNAKNTVYLQMNSLKPEDTAVYYCAKRGYASGSKWDYGYWGQGTQVTVSS”, the “polyreactivity (PSR sort gate)” value was “high polyreactivity”.
With “QVQLVESGGGLVQAGGSLRLSCAASGSTFYIYAMGWYRQATGKERELVARITRGGTTYADSEKGRFTISRDNAKNTVYLQMNSLKPEDTAVYYCNAASKTTRYYQAFYSGGGYWGQGTQVTVSS” the “polyreactivity (PSR sort gate)” value was “high polyreactivity”.
For “QVQLVESGGGLVQAGGSLRLSCAASGSTFGINAMGWYRQAPGKERDLVAAISSRGGSTYYADSVKGRFTISRDNAKNTVYLLMNSLKPEDTAVYYCAAEFAVSFYWSWLGQDYYYWGQGTQVTVSS”, the “polyreactivity (PSR sort gate)” value was “high polyreactivity”.
In the case of “QVQRVESGGGLVQAGGSLRLSCAASGRIFSNYAMGWYRQAPGKEREFVAAISGSGGSTYYADSVKGRFTISRDNAKNTVYLQMNSLKPEDTAVYYCSTSGPQYYSRNFDYWGQGTQVTVSS”, the “polyreactivity (PSR sort gate)” value is reported as “low polyreactivity”.
For “QVQLVESGGGLVQAGGSLRLSCAASGSTFCYSVMGWYRQEPRTEREFVAAISTRGDSTYYADSVKGRFTLSRDNAKNTVYLQMNSLKPEDTAVYYCAKSRQSCGRVRLDYWGQGTQVTVSS”, the “polyreactivity (PSR sort gate)” value was “low polyreactivity”.
In the case of “QFQLVESGGGLVQAGGSLRLSCAASGLIFAYNAKGWSRQATGKERELVAAITGGGDGTYYADSVKGRFTISRDNAKYTVYLQMNSLKPEDTAVYYCAADYKYVGSEYGYWGQGTQVTVSS”, the “polyreactivity (PSR sort gate)” value is reported as “low polyreactivity”.
For “QVQLVESGGGLVQAGGSLRLSCAASGRTFGGYAMGWYRQAPGKERELVAAISYSGGSTYYADSVKGRFTISRDNAKNTVYLQMNSLKPEDTAVYYCAADGYDAYYWGQGTQVTVSS”, the “polyreactivity (PSR sort gate)” value was “low polyreactivity”.
For “QVQLVESGGGLVQAGGSLRLSCAASGRNFGYYTMGWYRQAPGKERELVAAITSSGGRTYYADSVKGRFTISRDNAKNTVYLQMNSLIPEVTAVYYCNKVTYGYAYWRYDGYYYWGQGTQVTVSS”, the “polyreactivity (PSR sort gate)” value was “low polyreactivity”.
With “QVQLVESGGGLVQAGGSLRLSCAASGNTFYYYCMGWYRQAPGKERELVAAISSSGTSTYYADSVKGRFTISRDNAKNTVYLQMNSLKPEDTAVYYCARRTDRRTGPMYSWGQGTQVTVSS” the “polyreactivity (PSR sort gate)” value was “high polyreactivity”.
With “QVQLVDSGGGLVQAGGSLRLSWAASGSTLYVNAIGFYRQAPGKERELVSAISWSGGSTNYADSVKGRFTISRDNAKNTVYLQMNSQKPEDTSVYYCAVYYRRWFSRYDYWGQGTQVTVSS” the “polyreactivity (PSR sort gate)” value was “low polyreactivity”.
For “QVQLVESGGGLVQAGGSLRLSCAASGSTFDPNTKGWYRQAPGKERELVATITSVDSTNYADSVKGRFTISRDNANNTVYLQMNSLKTEDTAVYYCNADFVRVFFYAYDYWGQGTQVTVSS”, the “polyreactivity (PSR sort gate)” value was “low polyreactivity”.
With “QVQLVESGGGLVQAGGSLRLSCAASGRTFSSNAMGWYRPAPGKEREMVAAITRRSGSTYYADSVKGRFTISRDNAKNTVYLQMNSLKPEDTAVYYCNADIDSYREMDYWGQGTQVTVSS” the “polyreactivity (PSR sort gate)” value was “low polyreactivity”.
In the case of “QVQLVESGAGLVQAGGSLRLSCAASGIIFSGYAMGWYTQAPGKERELVAAISYSGASTYYADSVKGRFTISRDNAKNTVYLQMNSLKPEDTAVYYCAADRRYARYWNGWRYNYWGQGTQVTVSS”, the “polyreactivity (PSR sort gate)” value is reported as “high polyreactivity”.
With “QVQLVESGGGLVQAGGSLRLSCAASGSIFSTYAMGWYRQAPGKERELVAAITTSGGRTYYADSVKGRFTISRDNAKNTVYVQMNSLKPEETAVYYCNAVRGGRYGLDYWGQGTQVTVSS” the “polyreactivity (PSR sort gate)” value was “high polyreactivity”.
For “QVQLVESGGGLVQAGGSLRLSCAASGRTFYTNAKGWYRQAPGKERELVAAISSDSSTNYADSVKGRLTISRDNAKNTVYLQMNSLKPEDTAVYYCNKVRQGWADYEYWGQGSQVTVSS”, the “polyreactivity (PSR sort gate)” value was “low polyreactivity”.
In the case of “QVQLVESGGGLVQAGGSLRLSCAASGFSIAYYAMGWYRQEPGKERELVAAISRRGGSTYYADSVKGRFTISRDNAKNTVYLQMNSLKPEDTAVYYCAKAHYLSDYNYWGQGTQVTVSS”, the “polyreactivity (PSR sort gate)” value is reported as “high polyreactivity”.
In the case of “QVQLVESGGGIVQAGGSLRLSCAASGSIFYPYVMGWYRQAPGKERELVAAITTSVGSTYYADSVKGRFTISRDHAKNTVYLQMNSLKPEDTAVYYCAAKYFGSRRPGRYNYWGQGTQVTVSS”, the “polyreactivity (PSR sort gate)” value is reported as “high polyreactivity”.
For “QVQLVESGGGLVQAGGSLRLSCAASGRTFRYYTMGWYRQAPGKEREFVAAISSTGGTYYADSVKGRFTISRDNAKNTVYLQMNSQKPEDTAVYYCAATVIQVVVNVQLYDYDYWGQGTEVTVSS”, the “polyreactivity (PSR sort gate)” value was “low polyreactivity”.
With “QVQLVESGGGLVQAGGSLRLSCAASGRTFIYYAMGWYRQAPGKERELVASITTGGRTYYADSVKGRFTISRDNAKNTVYLQMNSLKPEDTAGYYCAAVRRIRRPRYGYWGQGTQVTVSS” the “polyreactivity (PSR sort gate)” value was “high polyreactivity”.
With “QVQLVESGGGLVQAGGSLRLSCAASGSIFDLYAMGWYRQAPGKERELVAGISYSGGSTYYADSVKGRFTISRDNAKNTVYLQMNSLKPEDTAVYYCAADDSYWYDNYIDEAAANTFDYWGQGTQVTVSS” the “polyreactivity (PSR sort gate)” value was “low polyreactivity”.
For “QVQLVESGGGLVQAGGSLRLSCAASGFIFQGYTMGWYRQAAGKERELVAAITSSGRTYYADSVKGRFTISRDNAKNTVYLQMNSLKPEDTAVYYCNADFLPSVANDYWGQGTQVTVSS”, the “polyreactivity (PSR sort gate)” value was “low polyreactivity”.
In the case of “QVQLVESGGGLVQAGGSLRLSCAASGSIFETNAMGWYRQAPGKERELVAAITGSGGSTYYADSVKGRFTISRDNAKNTVYLQMNSLIPVDTEVYYCAADSSGQSRFGYWGQGTQVTVSS”, the “polyreactivity (PSR sort gate)” value is reported as “low polyreactivity”.
